Assays:
[1] = target: T1, integrin αvβ3 on HEK 293 cells stably expressing αvβ3 (Homo sapiens (Human), UniProt P06756 31-1048; P05106 27-788); experiment: flow cytometry on HEK 293 cells stably expressing αvβ3
T1 construct: also called αvβ3 expressing 293 cells
Source text: (§1) A) Binding of anti-β3 (AP3) relative to F12 IgG4, H4C8 RGD1 IgG4,H4C8 RGD3 IgG4, H3C8 RGD3 with VL Fr4 V108/L109 (mouse) IgG4, H4C8 RGD3 IgG4, H3C8 RGD3 VL Fr4 K108/V109 (human) IgG4, H4C8 RGD1 VH Fr3 E72, H4C8 RGD3 VH Fr3 E72 IgG4. HEK 293 cells stably expressing αvβ3 were stained and the percentage of relative binding to the mean fluorescence intensity of AP3 is shown, B) Expi293 cells transiently expressing αvβ6 were stained and the percentage of relative binding to the mean fluorescence intensity of 3G9 is shown, C) HEK 293 cells stably expressing αvβ8 were stained and the percentage of relative binding to the mean fluorescence intensity of HuF12 is shown. All primary antibodies were used at 2.5 ug/ml. […] Binding or 3G9 is shown and percent binding of antibodies relative to 3G9 binding to αvβ6 is shown. Dotted line indicate binding observed with each positive control antibody,
(§2) RGD ligands bind promiscuously to a number of integrins. A highly desirable quality in RGD-mimetics is to retain specificity for some but not all integrins. One highly desirable property would be a dual inhibitor to both the αvβ8- and αvβ6-integrins, without cross-reactivity to other integrins. This property would facilitate specific targeting of integrin-mediated TGF-β activation without the liability of side-effects mediated by broadly blocking other integrins. We first measured binding to αvβ3 expressing 293 cells. Binding of anti-β3 (AP3) relative to F12 IgG4, H4C8 RGD1 IgG4,H4C8 RGD3 IgG4, H3C8 RGD3 with VL Fr4 V108/L109 (mouse) IgG4, H4C8 RGD3 IgG4, H3C8 RGD3 VI Fr4 K108/V109 (human) IgG4, H4C8 RGD1 Vh Fr3 E72, H4C8 RGD3 Vh Fr3 E72 IgG4. […] Expi293 cells transiently expressing αvβ6 were stained and the percentage of relative binding to the mean fluorescence intensity of anti-β6 (3G9) determined.

[2] = target: T2, human integrin αvβ8 on transfected cells (CHO cells stably transfected; HEK 293 cells stably expressing αvβ8) (human, UniProt P06756 31-1048; P26012 43-769); experiment: flow cytometry on HEK 293 cells stably expressing αvβ8
T2 construct: whole, on cells; also called CHO αvβ8 cells; αvβ8 expressing CHO cells
Source text: as §1, with “FIG. 33 H4C8 RGD3 and H4C8 RGD1 show specificity for αvβ6 and αvβ8, VL Fr4 K108/V109 humanization improves or maintains binding, VH Fr4 Q72 improves binding over E72. A)” for “A)”, “antibody, […]” for “antibody,”

[3] = target: T3, integrin αvβ5 ectodomain (immobilized) (Homo sapiens (Human), UniProt P06756 31-992; P18084 24-719); experiment: binding to immobilized ectodomains
T3 construct: R&D Systems; copies: 1 + 1
T3 sequence (P06756 31-992 limits assumed, chain 1 of 2): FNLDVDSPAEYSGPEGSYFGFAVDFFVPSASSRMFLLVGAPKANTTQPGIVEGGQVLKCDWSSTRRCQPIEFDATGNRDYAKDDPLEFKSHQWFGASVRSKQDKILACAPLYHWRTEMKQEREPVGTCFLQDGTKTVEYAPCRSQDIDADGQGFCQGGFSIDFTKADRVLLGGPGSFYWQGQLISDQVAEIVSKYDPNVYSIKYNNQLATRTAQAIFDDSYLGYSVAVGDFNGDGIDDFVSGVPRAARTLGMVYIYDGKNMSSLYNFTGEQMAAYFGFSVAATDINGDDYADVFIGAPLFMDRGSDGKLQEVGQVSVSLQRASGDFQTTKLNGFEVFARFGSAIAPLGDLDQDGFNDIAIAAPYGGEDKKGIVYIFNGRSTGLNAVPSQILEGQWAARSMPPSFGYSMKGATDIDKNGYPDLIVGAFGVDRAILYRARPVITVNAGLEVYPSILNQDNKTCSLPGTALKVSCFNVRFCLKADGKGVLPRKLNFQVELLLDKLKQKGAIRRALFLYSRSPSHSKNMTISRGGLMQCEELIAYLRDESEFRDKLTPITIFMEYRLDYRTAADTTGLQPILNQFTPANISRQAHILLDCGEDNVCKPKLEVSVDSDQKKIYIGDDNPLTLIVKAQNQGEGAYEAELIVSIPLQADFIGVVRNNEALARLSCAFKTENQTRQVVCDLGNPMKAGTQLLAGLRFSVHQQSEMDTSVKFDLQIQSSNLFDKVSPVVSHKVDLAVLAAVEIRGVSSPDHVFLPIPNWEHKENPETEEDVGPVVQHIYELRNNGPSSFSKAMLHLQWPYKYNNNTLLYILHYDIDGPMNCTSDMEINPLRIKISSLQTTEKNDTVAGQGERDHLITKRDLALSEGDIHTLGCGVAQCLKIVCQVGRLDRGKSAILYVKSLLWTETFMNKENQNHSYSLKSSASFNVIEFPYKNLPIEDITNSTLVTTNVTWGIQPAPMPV
T3 sequence (P18084 24-719 limits assumed, chain 2 of 2): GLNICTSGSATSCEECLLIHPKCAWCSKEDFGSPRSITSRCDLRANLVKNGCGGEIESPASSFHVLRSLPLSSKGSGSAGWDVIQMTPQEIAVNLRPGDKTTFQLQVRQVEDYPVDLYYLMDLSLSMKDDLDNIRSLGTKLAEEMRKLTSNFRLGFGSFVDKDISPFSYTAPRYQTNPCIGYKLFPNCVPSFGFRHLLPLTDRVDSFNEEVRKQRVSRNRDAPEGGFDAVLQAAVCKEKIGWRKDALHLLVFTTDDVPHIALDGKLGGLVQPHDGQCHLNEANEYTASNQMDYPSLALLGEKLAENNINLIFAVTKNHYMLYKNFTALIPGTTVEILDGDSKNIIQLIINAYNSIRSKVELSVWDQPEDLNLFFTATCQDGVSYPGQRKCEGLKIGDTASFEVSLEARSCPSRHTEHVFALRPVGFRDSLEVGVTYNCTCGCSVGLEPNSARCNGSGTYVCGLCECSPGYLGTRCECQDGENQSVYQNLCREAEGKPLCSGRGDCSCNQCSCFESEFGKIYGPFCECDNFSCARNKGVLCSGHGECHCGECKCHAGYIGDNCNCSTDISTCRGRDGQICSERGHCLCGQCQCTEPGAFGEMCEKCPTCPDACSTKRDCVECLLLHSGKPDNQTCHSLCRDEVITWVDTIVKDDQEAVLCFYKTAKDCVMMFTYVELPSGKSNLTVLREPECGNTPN

[4] = target: T4, integrin αvβ1 ectodomain (immobilized) (Homo sapiens (Human), UniProt P06756 31-992; P05556 21-728); experiment: binding to immobilized ectodomains
T4 construct: R&D Systems; copies: 1 + 1
T4 sequence (P06756 31-992 limits assumed, chain 1 of 2): as the sequence (P06756 31-992 limits assumed, chain 1 of 2) above
T4 sequence (P05556 21-728 limits assumed, chain 2 of 2): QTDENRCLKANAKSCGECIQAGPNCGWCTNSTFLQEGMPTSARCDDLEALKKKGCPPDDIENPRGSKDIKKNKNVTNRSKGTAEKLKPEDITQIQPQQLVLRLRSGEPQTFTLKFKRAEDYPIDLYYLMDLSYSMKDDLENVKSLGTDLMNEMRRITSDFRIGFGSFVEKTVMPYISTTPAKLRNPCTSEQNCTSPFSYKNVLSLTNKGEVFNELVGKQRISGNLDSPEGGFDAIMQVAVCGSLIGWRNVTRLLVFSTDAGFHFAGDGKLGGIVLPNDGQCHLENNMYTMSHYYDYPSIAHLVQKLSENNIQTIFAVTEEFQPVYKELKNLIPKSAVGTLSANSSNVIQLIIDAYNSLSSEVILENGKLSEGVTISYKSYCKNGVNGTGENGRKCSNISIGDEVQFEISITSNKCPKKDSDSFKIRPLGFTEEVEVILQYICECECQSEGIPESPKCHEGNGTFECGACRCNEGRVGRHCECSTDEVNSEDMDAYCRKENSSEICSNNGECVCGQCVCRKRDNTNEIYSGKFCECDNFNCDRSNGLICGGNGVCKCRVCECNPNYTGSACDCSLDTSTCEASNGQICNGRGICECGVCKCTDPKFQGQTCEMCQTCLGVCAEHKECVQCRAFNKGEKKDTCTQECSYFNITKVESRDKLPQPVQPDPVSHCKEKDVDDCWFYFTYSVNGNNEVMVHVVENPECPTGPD

[5] = target: T5, integrin αvβ6 ectodomain (immobilized) (human, UniProt P06756 31-992; P18564 22-709); experiment: binding to immobilized αvβ6 ectodomain
T5 construct: extracellular domain; Bought from R&D Systems or made in ExpiCHO cells; also called immobilized human αvβ6
T5 sequence (P06756 31-992, chain 1 of 2): as the sequence (P06756 31-992 limits assumed, chain 1 of 2) above
T5 sequence (P18564 22-709, chain 2 of 2): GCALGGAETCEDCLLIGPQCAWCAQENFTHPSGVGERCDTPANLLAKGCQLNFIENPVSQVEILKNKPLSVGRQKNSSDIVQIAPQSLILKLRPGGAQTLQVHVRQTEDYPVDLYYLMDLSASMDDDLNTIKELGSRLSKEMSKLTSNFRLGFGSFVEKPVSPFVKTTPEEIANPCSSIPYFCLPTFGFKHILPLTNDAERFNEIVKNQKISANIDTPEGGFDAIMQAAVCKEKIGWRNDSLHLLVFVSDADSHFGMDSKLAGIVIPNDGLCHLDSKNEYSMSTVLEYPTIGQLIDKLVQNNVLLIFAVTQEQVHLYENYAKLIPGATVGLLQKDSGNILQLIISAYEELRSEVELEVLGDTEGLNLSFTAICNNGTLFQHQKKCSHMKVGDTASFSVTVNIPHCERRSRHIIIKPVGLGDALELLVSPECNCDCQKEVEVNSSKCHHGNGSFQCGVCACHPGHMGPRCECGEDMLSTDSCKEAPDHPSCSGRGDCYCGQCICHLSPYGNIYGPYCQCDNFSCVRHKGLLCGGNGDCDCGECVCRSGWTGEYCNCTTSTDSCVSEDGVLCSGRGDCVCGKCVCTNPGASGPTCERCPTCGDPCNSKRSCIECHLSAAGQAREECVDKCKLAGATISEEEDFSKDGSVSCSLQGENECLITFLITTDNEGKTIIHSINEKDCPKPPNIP

[6] = target: T6, integrin αvβ6 on transfected cells (CHO cells; Expi293 cells transiently expressing αvβ6) (human, UniProt P06756 31-1048; P18564 22-788); experiment: flow cytometry on Expi293 cells transiently expressing αvβ6, antibody at 2.5 µg/ml
T6 construct: whole, on cells; Legend says 'CHO cells expressing human αvβ8 or αvβ6'; read as human; also called αvβ6 expressing CHO cells
T6 sequence (P06756 31-1048, chain 1 of 2): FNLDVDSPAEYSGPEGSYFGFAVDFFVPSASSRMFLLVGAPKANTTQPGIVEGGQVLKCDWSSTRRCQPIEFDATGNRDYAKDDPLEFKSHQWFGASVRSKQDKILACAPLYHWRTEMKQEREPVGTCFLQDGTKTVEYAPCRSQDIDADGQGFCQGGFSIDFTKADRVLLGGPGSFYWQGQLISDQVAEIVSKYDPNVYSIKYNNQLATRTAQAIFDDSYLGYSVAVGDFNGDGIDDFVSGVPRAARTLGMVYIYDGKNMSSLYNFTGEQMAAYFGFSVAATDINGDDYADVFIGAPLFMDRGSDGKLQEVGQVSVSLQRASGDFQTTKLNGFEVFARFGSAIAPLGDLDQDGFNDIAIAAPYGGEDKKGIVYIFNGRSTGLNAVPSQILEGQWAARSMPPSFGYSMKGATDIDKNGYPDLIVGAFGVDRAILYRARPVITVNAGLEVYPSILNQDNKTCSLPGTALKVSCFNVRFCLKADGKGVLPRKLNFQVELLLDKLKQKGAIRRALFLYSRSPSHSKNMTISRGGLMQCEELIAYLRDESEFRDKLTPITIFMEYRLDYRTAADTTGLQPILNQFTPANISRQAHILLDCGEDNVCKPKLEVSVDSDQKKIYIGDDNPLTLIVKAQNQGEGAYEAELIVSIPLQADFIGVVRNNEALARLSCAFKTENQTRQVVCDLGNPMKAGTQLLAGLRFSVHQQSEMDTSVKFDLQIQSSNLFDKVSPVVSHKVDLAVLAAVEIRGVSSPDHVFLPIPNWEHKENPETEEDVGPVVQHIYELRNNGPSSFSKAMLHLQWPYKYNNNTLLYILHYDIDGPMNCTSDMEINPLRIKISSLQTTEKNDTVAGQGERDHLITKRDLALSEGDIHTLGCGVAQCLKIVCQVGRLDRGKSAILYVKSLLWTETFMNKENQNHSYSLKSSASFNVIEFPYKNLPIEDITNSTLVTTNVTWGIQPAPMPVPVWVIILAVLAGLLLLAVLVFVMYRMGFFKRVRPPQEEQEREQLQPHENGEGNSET
T6 sequence (P18564 22-788, chain 2 of 2): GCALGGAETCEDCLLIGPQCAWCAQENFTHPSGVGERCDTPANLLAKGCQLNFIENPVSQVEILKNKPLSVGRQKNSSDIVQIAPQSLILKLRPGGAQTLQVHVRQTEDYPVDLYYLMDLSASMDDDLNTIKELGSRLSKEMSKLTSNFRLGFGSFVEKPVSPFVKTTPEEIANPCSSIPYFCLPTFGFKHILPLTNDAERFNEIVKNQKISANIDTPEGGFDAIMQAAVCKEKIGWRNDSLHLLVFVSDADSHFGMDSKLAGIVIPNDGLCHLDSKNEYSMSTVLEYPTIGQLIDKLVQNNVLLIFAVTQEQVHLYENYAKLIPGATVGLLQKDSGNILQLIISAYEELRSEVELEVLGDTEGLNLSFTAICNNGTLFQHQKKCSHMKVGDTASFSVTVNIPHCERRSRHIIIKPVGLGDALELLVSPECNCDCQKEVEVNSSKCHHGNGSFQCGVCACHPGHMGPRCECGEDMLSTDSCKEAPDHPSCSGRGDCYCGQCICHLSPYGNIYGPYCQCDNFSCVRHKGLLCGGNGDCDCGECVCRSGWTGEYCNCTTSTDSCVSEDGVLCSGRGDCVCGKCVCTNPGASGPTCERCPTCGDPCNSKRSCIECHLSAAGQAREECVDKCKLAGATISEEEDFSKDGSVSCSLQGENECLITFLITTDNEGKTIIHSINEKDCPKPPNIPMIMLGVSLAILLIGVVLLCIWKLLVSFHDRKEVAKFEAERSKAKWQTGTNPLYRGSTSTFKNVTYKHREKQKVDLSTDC
Procedure: as §1, with “HEK” for “A) Binding of anti-β3 (AP3) relative to F12 IgG4, H4C8 RGD1 IgG4,H4C8 RGD3 IgG4, H3C8 RGD3 with VL Fr4 V108/L109 (mouse) IgG4, H4C8 RGD3 IgG4, H3C8 RGD3 VL Fr4 K108/V109 (human) IgG4, H4C8 RGD1 VH Fr3 E72, H4C8 RGD3 VH Fr3 E72 IgG4. HEK”
as §2, with “cells.” for “cells. Binding of anti-β3 (AP3) relative to F12 IgG4, H4C8 RGD1 IgG4,H4C8 RGD3 IgG4, H3C8 RGD3 with VL Fr4 V108/L109 (mouse) IgG4, H4C8 RGD3 IgG4, H3C8 RGD3 VI Fr4 K108/V109 (human) IgG4, H4C8 RGD1 Vh Fr3 E72, H4C8 RGD3 Vh Fr3 E72 IgG4.”, “determined. […]” for “determined.”

[7] = target: T2, human integrin αvβ8 on transfected …; experiment: flow cytometry on HEK 293 cells stably expressing αvβ8, antibody at 2.5 µg/ml
Source text: as §1, with “FIG. 33 H4C8 RGD3 and H4C8 RGD1 show specificity for αvβ6 and αvβ8, VL Fr4 K108/V109 humanization improves or maintains binding, VH Fr4 Q72 improves binding over E72. A)” for “A)”, “antibody, […]” for “antibody,”

[8] = target: T6, integrin αvβ6 on transfected cells (CHO …); experiment: flow cytometry on CHO cells expressing αvβ6, antibodies as IgG4
[9] = target: recombinant human integrin αvβ8 ectodomain (human, UniProt P06756 31-992; P26012 43-681); experiment: cell-based or functional assay
[10] = target: T3, integrin αvβ5 ectodomain (immobilized); experiment: binding to immobilized integrin ectodomains blocked with BSA
[11] = target: T4, integrin αvβ1 ectodomain (immobilized); experiment: as above
[12] = target: T5, integrin αvβ6 ectodomain (immobilized); experiment: as above

| Binder | binding result [1] | binding result [2] | binding result [3] | binding result [4] | binding result [5] | binding result [6] | binding result [7] | binding result [8] | ED50 of the inhibition of αvβ8-mediated TGF-β activation (immobilized human αvβ8, TMLC GARP/L-TGF-β reporter cells) [9] [µg/mL] | binding result [10] | binding result [11] | binding result [12] |
| --- | --- | --- | --- | --- | --- | --- | --- | --- | --- | --- | --- | --- |
| H4C8 RGD1 VH Fr3 E72 (antibody, IgG4, V domains shown) VH: QVQLVQSGAEVKKPGASVKVSCKVSGYTLTRQSMHWVRQAPGKGLEWMGRINTETGEPTYAQKFQGRVTMTEDTSTDTAYMELSSLRSEDTAVYFCAIFYYGRDTWGQGTTVTVSS VL: EIVMTQSPATLSVSPGERVTLSCKSSQSLLRRGDLATIHGNALAWYQQKPGQAPRLLIYWASTRETGVPARFSGSGSGTEFTLTISSLQSEDFAVYYCKQSYNLLSFGQGTKVEIKR | no binding (tested: 2.5 µg/ml) | no binding (tested: 2.5 µg/ml) | no binding | no binding | binds | binds |  |  |  |  |  |  |
| H4C8 RGD3 VH Fr3 E72 IgG4 (antibody, V domains shown, IgG4) VH: QVQLVQSGAEVKKPGASVKVSCKVSGYTLTRQSMHWVRQAPGKGLEWMGRINTETGEPTYAQKFQGRVTMTEDTSTDTAYMELSSLRSEDTAVYFCAIFYYGRDTWGQGTTVTVSS VL: EIVMTQSPATLSVSPGERVTLSCKSSQSLLGRGDLGRLKKNALAWYQQKPGQAPRLLIYWASTRETGVPARFSGSGSGTEFTLTISSLQSEDFAVYYCKQSYNLLSFGQGTKVEIKR | no binding (tested: 2.5 µg/ml) |  | no binding | no binding | binds | binds | binds |  |  |  |  |  |
| HuC6D4 F12 IgG4 (antibody, also called HuF12) heavy: QIQLVQSGAEVKKPGASVKISCKASGYTFTKYSMHWVRQAPGQGLEWVARINTETGEPTFADDFRGRFTVTLDTSTSTAYLEIRSLRSDDTAVYFCAIFYYGRDTWGQGTTLTVSSASTKGPSVFPLAPCSRSTSESTAALGCLVKDYFPEPVTVSWNSGALTSGVHTFPAVLQSSGLYSLSSVVTVPSSSLGTKTYTCNVDHKPSNTKVDKRVESKYGPPCPPCPAPEFLGGPSVFLFPPKPKDTLMISRTPEVTCVVVDVSQEDPEVQFNWYVDGVEVHNAKTKPREEQFNSTYRVVSVLTVLHQDWLNGKEYKCKVSNKGLPSSIEKTISKAKGQPREPQVYTLPPSQEEMTKNQVSLTCLVKGFYPSDIAVEWESNGQPENNYKTTPPVLDSDGSFFLYSKLTVDKSRWQEGNVFSCSVMHEALHNHYTQKSLSLSPGK VL: EIVMTQSPATLSVSPGERVTMSCKSSQSLLHSRSRKNYLAWYQQKPGQAPRLLIYWASTRESGVPARFSGSGSGTEFTLTISSVQSEDFAVYYCKQSYNLLSFGQGTVLEIKR | no binding (tested: 2.5 µg/ml) |  |  |  |  |  |  | no binding (tested: 1 µg/mL) | 0.14 | no binding | no binding | no binding |

— patent US20260139057A1 (University of California, published 2026)
